# Test results published in publication PMC4228395, “Detrimental effect of the 6 His C-terminal tag on YedY enzymatic activity and influence of the TAT signal sequence on YedY synthesis” (BMC Biochemistry, 2013).
# Tests used:
# Test in all cases: purified protein
# Type in all cases: biochemical, Cereibacter sphaeroides
# Details in all cases: 0.2 mM dithionite-reduced benzyl viologen as electron donor, 100 mM MES pH 6.0, anaerobic
# [1] = tested on: T1, C[S+](C)[O-]
# T1 construct: mature periplasmic enzyme, TAT signal peptide cleaved; N-terminal 6His-TEV site (ENLYFQ) kept; plasmid pSM196 in R. sphaeroides dmsA- strain; monomer; molybdenum cofactor
# [2] = tested on: T2, C[S+](C)[O-]
# T2 construct: mature enzyme expressed without TAT signal peptide; N-terminal 6His-TEV site kept; plasmid pSM181 in R. sphaeroides dmsA- strain
# [3] = tested on: T3, C[S+](C)[O-]
# T3 construct: mature enzyme, TAT signal peptide cleaved; N-terminal 6His tag cut off by TEV protease, GHM left at N-terminus; pSM196 in R. sphaeroides dmsA- strain; monomer
substance,measurement,setting,value
"YedY, N-ter tag (+SS) (Cereibacter sphaeroides f. sp. denitrificans)",Km,[1],71 mM
"YedY, N-ter tag (-SS) (Cereibacter sphaeroides f. sp. denitrificans)",Km,[2],43 ± 6 mM
"YedY, No tag (+SS) (Cereibacter sphaeroides f. sp. denitrificans)",Km,[3],61 ± 7 mM
